Assay results published in PMC10341807, “Lung Surfactant Protein B Peptide Mimics Interact with the Human ACE2 Receptor” (International Journal of Molecular Sciences, 2023).
Bridges are numbered along the chain shown (N, C = ends). Where no end group is shown, it is not given here.

What was measured:
[1] = target: T1, recombinant human ACE2 receptor construct (Homo sapiens, UniProt Q9BYF1); assay: Surface plasmon resonance (SPR) binding of peptides to immobilised rhACE2; details: pH 7.4, read-out: ka
T1 construct: included residues Glutamine 18 to Serine 740 of the full-length protein; 10xHis (C); purchased R&D Systems

[2] = target: recombinant human ACE2 receptor construct (angiotensin-converting enzyme 2) (human) (UniProt Q9BYF1); assay: SPR; Biacore T100; ACE2 immobilised on the sensor chip, peptide (from 1 mg/mL in DMSO, diluted in HBS-EP buffer, 0.5 µg/mL) flowed at 30 µL/min for 5 min; 37 °C; HBS-EP: 10 mM Hepes pH 7.4, 150 mM NaCl, 3 mM EDTA, 0.005% surfactant P20
Chain of recombinant human ACE2 receptor construct (angiotensin-converting enzyme 2) (human) (Q9BYF1 18-740): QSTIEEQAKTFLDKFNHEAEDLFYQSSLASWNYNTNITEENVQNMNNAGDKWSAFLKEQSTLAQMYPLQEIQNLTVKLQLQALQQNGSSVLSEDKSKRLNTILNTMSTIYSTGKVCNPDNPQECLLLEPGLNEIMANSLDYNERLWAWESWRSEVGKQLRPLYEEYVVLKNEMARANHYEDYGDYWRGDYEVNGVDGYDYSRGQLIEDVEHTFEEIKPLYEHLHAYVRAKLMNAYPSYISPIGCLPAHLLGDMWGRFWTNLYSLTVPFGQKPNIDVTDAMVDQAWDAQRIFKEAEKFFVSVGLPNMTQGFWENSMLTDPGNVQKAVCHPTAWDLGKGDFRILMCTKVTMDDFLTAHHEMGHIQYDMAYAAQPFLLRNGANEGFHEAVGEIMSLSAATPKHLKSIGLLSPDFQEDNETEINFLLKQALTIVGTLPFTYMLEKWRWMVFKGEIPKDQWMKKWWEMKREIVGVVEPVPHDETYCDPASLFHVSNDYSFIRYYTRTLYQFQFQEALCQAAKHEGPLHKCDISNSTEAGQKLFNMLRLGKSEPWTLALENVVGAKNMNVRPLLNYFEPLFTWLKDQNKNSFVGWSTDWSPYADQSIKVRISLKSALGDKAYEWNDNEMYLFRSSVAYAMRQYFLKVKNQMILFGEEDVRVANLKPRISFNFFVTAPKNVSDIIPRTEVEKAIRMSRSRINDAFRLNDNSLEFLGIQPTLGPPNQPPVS

T1 sequence (Q9BYF1 18-740): as above

| Ka [2] [M⁻¹] | Kd [2] [nM] | Kobs (at 1.05 × 10^−7 analyte) [2] [s⁻¹] | koff [2] [s⁻¹] | kon [2] [M⁻¹ s⁻¹] | Substance | kon [1] [M⁻¹ s⁻¹] |
| --- | --- | --- | --- | --- | --- | --- |
| – | – | – | – | – | FPIPLPYCWLCRALIKRIQAMIPKGGRMLPQLVCRLVLRCS (disulfide 8-40, 11-34) [SMB] | 6200 |
| – | – | – | – | – | FPIPLPYYWLYRALIKRIQALIPKGGRLLPQLVYRLVLRYS [B-YL] | 21900 |
| 1.01e+08 | 9.87 | 0.000712 | 6.12e-05 | 6200 | Super Mini-B (SMB), synthetic lung surfactant protein B peptide mimic | – |
